In patent US20240034792A1 (HARBOUR BIOMED SHANGHAI, published 2024):
Residue numbers refer to the chain shown, from its start.

B1: PR000673 (antibody, human IgG4 S228P, kappa, V domains shown)
VH: QVQLVESGGGVVQPGRSLRLSCAASGFIFSNYGMHWVRQAPGKGLEWVAVIWYDGSKKYYGDSVKGRFTISRDNSKNTLYLQMNSLRDEDTAVYFCARNDDYWGQGTLVTVSS
VL: EIVLTQSPATLSFSPGERATLSCRASQSVSSDLAWYQQKPGQAPSLLIYDASNRATGIPARFSGSGSGTDFTLTISSLEPEDFAVYYCHQRNNWPLTFGGGTKVEIKR
notes: Fully human recombinant H2L2 antibody, human IgG4, kappa light chain; also called 4004_10H9A12
B2: PR000677 (antibody, human IgG4 S228P, kappa, V domains shown)
VH: QVQLQQSGPGLVKPSQTLSLTCAISGDSVSSNSAAWNWIRQSPSRGLEWLGRTYYRSKWYSDYGISVNSRITVNPDTSKNLFSLQLNPVTPEDTAVYYCTRETHYYGSGSYLDYWSQGTLVTVSS
VL: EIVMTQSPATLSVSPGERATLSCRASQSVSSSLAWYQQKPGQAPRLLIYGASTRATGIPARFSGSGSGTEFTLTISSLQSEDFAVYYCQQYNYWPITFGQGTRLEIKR
notes: Fully human recombinant H2L2 antibody, human IgG4, kappa light chain; also called 4004_33B9E4
B3: PR002474 (antibody, human IgG1, V domains shown)
VH: EVQLVETGGGLIQPGGSLRLSCAASGFNVSSHYMSWVRQAPGKGLEWVSIIHSGGSTYYADSVKGRFTISRDNSKNRLYLQMNSLRADDTAVYYCARATAVAEKNGYNYPFNYWGQGTLVTVSS
notes: Heavy-chain-only antibody (HCAb), human IgG1 Fc; two heavy chains, no light chain; also called R4004P547D3
B4: PR002476 (antibody, human IgG1, V domains shown)
VH: B3 VH with D88E
notes: Heavy-chain-only antibody (HCAb), human IgG1 Fc; two heavy chains, no light chain; also called R4004P547H11
B5: PR000679 (antibody, human IgG4 S228P, kappa, V domains shown)
VH: QVQLVQSGTEVKKPGSSVKVSCKASGGTFSSYAISWVRQAPGQGLEWMGGIIPIFDTVSSAQKFQGRVTITADKSTSTAYMELFSLRSEDTAVYYCARSPPYSSNWYQYFQHWGQGTLVTVSS
VL: DIQMTQSPSTLSASVGDRVTITCRASQTISIWLAWYQQKPGKAPKLLIYKASSLESGVPSRFSGSGSGTEFTLTISSLQPDDFATYYCQQFNSYWTFGQGTKVEIKR
notes: Fully human recombinant H2L2 antibody, human IgG4, kappa light chain; also called 4004_6C11C6
B6: PR000674 (antibody, human IgG4 S228P, kappa, V domains shown)
VH: QVQLVESGGGVVQPGKSLRLSCTVSGLTFSDNGMHWVRQAPGRGLEWMSVIWYDGSKKYYADSVKGRFTISRDNSKNTLYLQMNNMRVEDTAVYYCATNSDYWGQGTLVTVSS
VL: EIVLTQSPATLSLSPGERATLSCRASQSVSSYLAWYQQKPGQAPRLLIYDTSKRATGIPARFSGSGSGTDFTLTISSLEPEDFAVYYCQQHNNWIFTFGPGTKVDIKR
notes: Fully human recombinant H2L2 antibody, human IgG4, kappa light chain; also called 4004_12H9C1
B7: PR000675 (antibody, human IgG4 S228P, kappa, V domains shown)
VH: EVQLLESGGGLVQPGGSLRLSCVDSGFTFSSYAMTWVRQAPGKGLEWVSGISGSGYSTYYADSVKGRFTISRDNSKKTLYLQMNSLRAEDTAVYYCAELSLDYWGQGTLVTVSS
VL: B1 VL with F13L, S31R, D32Y, S45R, I48M, Y49H, S52A, I58L, S63N, H89Q
notes: Fully human recombinant H2L2 antibody, human IgG4, kappa light chain; also called 4004_19G8F2
B8: PR000676 (antibody, human IgG4 S228P, kappa, V domains shown)
VH: QIQLVESGGGVVQPGRSLRLSCAASGFTLSSYGMHWVRQAPGKGLEWVAVILSDGSNKYYADSVKGRFTISRDNSKNTLYLQMNSLRAEDTAVYYCADLGGDVWGQGTTVTVSS
VL: B1 VL with F13L, D32Y, S45R, N53T, H89Q, N92S
notes: Fully human recombinant H2L2 antibody, human IgG4, kappa light chain; also called 4004_1A7A1

Target: T1, Human PD-1 expressed on CHO-K1 cells (CHO-K1/hPD-1) (human, UniProt Q15116 25-288)
T1 construct: whole, on cells; also called CHO-K1 cells overexpressing human PD-1
Experiment: FACS blocking of biotin-labeled human PD-L1 binding to CHO-K1-hPD-1 cells
Protocol: (§1) Briefly, the CHO-K1-hPD-1 cells were digested and resuspended in an F-12K complete medium, and the cell density was adjusted to 1×10⁶ cells/mL. The cells were seeded in a 96-well V-bottom plate (Corning, Cat#3894) at 100 μL/well, followed by the addition of the test antigen-binding proteins with concentrations 2-fold of final concentrations obtained by 3-fold or 5-fold gradient dilution were each added at 100 μL/well. The mixtures were well mixed. The maximum final concentration of the antigen-binding proteins was 100 nM or 300 nM. A total of 8 concentrations were set. hIgG was used as a control. The cells were incubated at 4° C. for 1 h away from light. […] The cells were incubated at 4° C. away from light for 30 min. The cells in each well were rinsed twice with 100 μL of pre-cooled PBS, and centrifuged at 500 g at 4° C. for 5 min, and then the supernatant was discarded. A fluorescent secondary antibody (PE Streptavidin, BD, Cat# 554061, 1:200) was added at 100 μL/well, and the cells were incubated at 4° C. away from light for 30 min. The cells in each well were rinsed twice with 200 μL of pre-cooled PBS, and centrifuged at 500 g at 4° C. for 5 min, and then the supernatant was discarded. Finally, the cells in each well were resuspended in 200 μL of pre-cooled PBS, the fluorescence signal values were read using a BD FACS CANTOII, and the IC₅₀ values were calculated.

T1 sequence (Q15116 25-288): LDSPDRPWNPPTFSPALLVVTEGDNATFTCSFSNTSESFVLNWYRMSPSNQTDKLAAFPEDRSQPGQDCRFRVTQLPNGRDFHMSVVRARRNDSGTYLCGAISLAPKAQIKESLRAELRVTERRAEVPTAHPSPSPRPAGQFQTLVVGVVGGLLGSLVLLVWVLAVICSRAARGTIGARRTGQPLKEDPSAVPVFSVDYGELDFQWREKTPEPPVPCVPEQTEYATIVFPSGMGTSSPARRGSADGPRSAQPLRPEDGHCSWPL

In order of rising IC50:
1. B1  0.402 nM
2. B5  0.437 nM
3. B6  0.769 nM
4. B2  3.4 nM
5. B3  8.91 nM
6. B4  10.3 nM
7. B7  12.4 nM
8. B8  25.6 nM

In order of falling “Maximum inhibition rate (%)” value:
1. B3  92.2%
2. B4  91.3%
3. B8  76%
4. B7  72%
5. B6  66.7%
6. B1  45.6%
7. B5  40.2%
8. B2  31.2%

Target: T1, Human PD-1 expressed on CHO-K1 cells …
Experiment: FACS blocking of biotin-labeled human PD-L2 binding to CHO-K1-hPD-1 cells
Protocol: as §1

In order of rising IC50:
1. B1  1.55 nM
2. B6  1.83 nM
3. B5  3.38 nM
4. B2  4.52 nM
5. B7  19.7 nM

In order of falling “Maximum inhibition rate (%)” value:
1. B6  92.7%
2. B1  90.3%
3. B5  80.1%
4. B7  59.9%
5. B2  14%

Target: T2, Cynomolgus monkey PD-1 expressed on CHO-K1 cells (CHO-K1/cyno PD-1) (cynomolgus monkey, UniProt B0LAJ3 25-288)
T2 construct: also called CHO-K1 cells overexpressing cynomolgus monkey PD-1
Experiment: FACS, CHO-K1/cyno PD-1 cells
Protocol: (§2) In order to investigate the in vitro binding activity of the PD-1 antigen-binding proteins to human/cynomolgus monkey PD-1, the binding assay at the cellular level was performed using a CHO-K1 cell strain overexpressing human or cynomolgus monkey PD-1 (CHO-K1/hPD-1 or CHO-K1/cyno PD-1, from GenScript). Briefly, the CHO-K1-hPD-1 cells were digested and resuspended in an F-12K complete medium, and the cell density was adjusted to 1×10⁶ cells/mL. The cells were seeded in a 96-well V-bottom plate (Corning, Cat#3894) at 100 μL/well, followed by the addition of the test antigen-binding proteins with concentrations 2-fold of final concentrations obtained by 5-fold gradient dilution were each added at 100 μL/well. The mixtures were well mixed. The maximum final concentration of the antigen-binding proteins was 100 nM or 300 nM. A total of 8-11 concentrations were set. hIgG was used as a control. The cells were incubated at 4° C. for 1 h away from light. Thereafter, the cells in each well were rinsed twice with 100 μL of pre-cooled PBS, and centrifuged at 500 g at 4° C. for 5 min, and then the supernatant was discarded. Then 100 μL of a fluorescent secondary antibody (goat anti-human IgG (H+L) secondary antibody, Alexa Fluor® 488 conjugate, Invitrogen, Cat #A11013, 1:1000) was added to each well. The plate was incubated away from light at 4° C. for 30 min. The cells in each well were rinsed twice with 200 μL of pre-cooled PBS, and centrifuged at 500 g at 4° C. for 5 min, and then the supernatant was discarded. Finally, the cells in each well were resuspended in 200 μL of pre-cooled PBS, and the fluorescence signal values were read using a BD FACS CANTOII.

T2 sequence (B0LAJ3 entry or part of it limits assumed): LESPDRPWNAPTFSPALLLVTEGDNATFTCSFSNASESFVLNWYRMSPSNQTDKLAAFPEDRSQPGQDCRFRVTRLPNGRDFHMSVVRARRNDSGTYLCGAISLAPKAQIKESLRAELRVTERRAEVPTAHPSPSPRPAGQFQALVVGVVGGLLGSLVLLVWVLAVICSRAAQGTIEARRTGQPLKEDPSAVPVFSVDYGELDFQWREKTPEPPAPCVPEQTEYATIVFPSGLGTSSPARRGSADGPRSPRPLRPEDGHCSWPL

In order of falling EC50:
1. B8  8.34 nM
2. B7  6.91 nM
3. B2  2.86 nM
4. B6  2.35 nM
5. B1  2.04 nM
6. B5  1.58 nM

In order of rising “MFI Maximum” value:
1. B5  24800
2. B2  34500
3. B7  36800
4. B1  38200
5. B8  39000
6. B6  41200

Target: T3, Human PD-1-His protein (ACROBiosystems, # PD1-H5221) (human, UniProt Q15116 25-167)
T3 construct: Bought reagent, coated on the ELISA plate; also called human PD-1 protein; human PD-1 antigen; not shown: His tag
Experiment: ELISA, plate-coated human PD-1-His
Protocol: Human PD-1-His protein (ACROBiosystems, # PD1-H5221) was diluted to 2 μg/mL with PBS, added to a 96-well plate (Corning, cat#9018) at 100 μL/well, and incubated at 4° C. overnight. After the liquid was discarded, the plate was washed 3 times with PBST buffer (pH 7.4, containing 0.05% Tween-20), and 250 μL of 2% BSA blocking buffer was added. The plate was incubated at 37° C. for 1 h. The blocking buffer was discarded, and the plate was washed 3 times with PBST buffer (pH 7.4, containing 0.05% Tween-20). The test antigen-binding protein was 5-fold diluted in sequence at an initial concentration of 100 nM for a total of 8-10 concentration gradients, and added at 100 μL/well. The plate was incubated at 37° C. for 1 h. An isotype antibody was taken as a control. After the plate was washed 3 times with PBST buffer (pH 7.4, containing 0.05% Tween-20), a 4000-fold diluted goat anti-human HRP secondary antibody (Invitrogen, #A18805) was added. The plate was incubated away from light at 37° C. for 1 h. After the plate was washed 3 times with PBST buffer (pH 7.4, containing 0.05% Tween-20), TMB (Biopanda, # TMB-S-003) was added at 100 μL/well. The plate was left away from light at room temperature for about 5 min. The reactions were terminated by adding 50 μL of stop buffer (BBI life sciences, #E661006-0200) to each well, and the absorbance values at 450 nm (OD450) were measured using a microplate reader (PerkinElemer, #Enspire). The half maximal effective concentration (EC₅₀) was calculated from the measurement results.

T3 sequence (Q15116 25-167 limits assumed): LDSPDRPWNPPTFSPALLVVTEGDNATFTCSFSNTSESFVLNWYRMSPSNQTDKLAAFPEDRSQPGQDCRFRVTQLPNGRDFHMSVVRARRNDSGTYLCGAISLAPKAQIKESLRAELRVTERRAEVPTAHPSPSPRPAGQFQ

In order of falling EC50:
1. B3  0.189 nM
2. B4  0.171 nM
3. B8  0.121 nM
4. B7  0.113 nM
5. B5  0.102 nM
6. B2  0.078 nM
7. B6  0.074 nM
8. B1  0.066 nM

In order of falling “OD Maximum” value:
1. B8  3.32
2. B5  3.31
3. B7  3.31
4. B2  3.27
5. B6  3.24
6. B1  3.09
7. B3  2.97
8. B4  2.92

Target: T1, Human PD-1 expressed on CHO-K1 cells …
Experiment: FACS, CHO-K1/hPD-1 cells
Protocol: as §2

In order of falling EC50:
1. B3  13.9 nM
2. B4  12.7 nM
3. B8  10.2 nM
4. B7  7.91 nM
5. B1  4.76 nM
6. B2  2.1 nM
7. B6  1.94 nM

In order of rising “MFI Maximum” value:
1. B4  1.02e+06
2. B3  1.08e+06
3. B1  1.57e+06
4. B2  1.87e+06
5. B8  2.16e+06
6. B7  2.29e+06
7. B6  2.35e+06

Target: T4, Cynomolgus monkey PD-1-His protein (AcroBiosystems, # PD1-05223) (cynomolgus monkey, UniProt B0LAJ3 25-170)
T4 construct: Bought reagent, coated on the ELISA plate; also called cynomolgus monkey PD-1 protein
Experiment: ELISA, plate-coated cynomolgus monkey PD-1-His
Protocol: Cynomolgus monkey PD-1-His protein (AcroBiosystems, # PD1-05223) was diluted to 2 μg/mL with PBS, added to a 96-well plate (Corning, #9018) at 100 μL/well, and incubated at 4° C. overnight. After the liquid was discarded, the plate was washed 3 times with PBST, blocked by adding 250 μL of 2% BSA, and incubated at room temperature for 1 h. The blocking buffer was discarded, and the plate was washed 3 times with PBST buffer (pH 7.4, containing 0.05% Tween-20). The test antigen-binding protein was diluted to 5 μg/mL, and added at 100 μL/well. The plate was incubated at 37° C. for 1 h. After the plate was washed 3 times with PBST buffer (pH 7.4, containing 0.05% Tween-20), a 4000-fold diluted goat anti-human HRP secondary antibody (Invitrogen, #A18805) was added. The plate was incubated at 37° C. for 1 h. After the plate was washed, TMB (Biopanda, # TMB-S-003) was added at 100 μL/well. The plate was left away from light at room temperature for 5 min. The reactions were terminated by adding 50 μL of stop buffer (BBI life sciences, #E661006-0200) to each well, and the absorbance values at 450 nm (OD450) were measured using a microplate reader (PerkinElemer, #Enspire).

T4 sequence (B0LAJ3 entry or part of it limits assumed): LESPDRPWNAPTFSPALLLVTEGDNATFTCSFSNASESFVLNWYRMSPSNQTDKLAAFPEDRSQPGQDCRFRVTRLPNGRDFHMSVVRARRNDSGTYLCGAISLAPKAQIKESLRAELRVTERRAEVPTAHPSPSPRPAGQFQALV

In order of falling EC50:
1. B4  0.366 nM
2. B3  0.345 nM

In order of rising “OD Maximum” value:
1. B4  2.7
2. B3  2.89
